# B1: Probable E3 ubiquitin-protein ligase LOG2 (Arabidopsis thaliana (Mouse-ear cress)), Q9S752 (parent)
# chain: MGNISSSGGEGRRRRRRNHTAAPPPPPPPPSSSLPPPPLPTEIQANPIVFAAVTPYPNPNPNPVYQYPASYYHHPPPGAMPLPPYDHHLQHHPPHPYHNHSWAPVAMARYPYAGHMMAQPTPYVEHQKAVTIRNDVNLKKESLRLEPDPDNPGRFLVSFTFDATVSGRISVIFFAKESEDCKLTATKEDILPPITLDFEKGLGQKFKQSSGSGIDFSVFEDVELFKAAADTEIYPLAVKAEAAPSGGENEEEERSGSKNAQITQAVYEKDKGEIKIRVVKQILWVNGTRYELQEIYGIGNTVEGDDDSADDANDPGKECVICLSEPRDTTVLPCRHMCMCSGCAKVLRFQTNRCPICRQPVERLLEIKVHGNNGSGNNTGQGETVEQE
# partner: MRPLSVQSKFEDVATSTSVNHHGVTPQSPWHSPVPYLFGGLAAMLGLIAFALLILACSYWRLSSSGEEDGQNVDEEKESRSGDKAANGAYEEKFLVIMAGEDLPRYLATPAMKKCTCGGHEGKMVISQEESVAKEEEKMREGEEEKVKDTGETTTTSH
# B2: Protein GLUTAMINE DUMPER 1 (Arabidopsis thaliana (Mouse-ear cress)), O81775 (parent)
# chain: B1 partner
# partner: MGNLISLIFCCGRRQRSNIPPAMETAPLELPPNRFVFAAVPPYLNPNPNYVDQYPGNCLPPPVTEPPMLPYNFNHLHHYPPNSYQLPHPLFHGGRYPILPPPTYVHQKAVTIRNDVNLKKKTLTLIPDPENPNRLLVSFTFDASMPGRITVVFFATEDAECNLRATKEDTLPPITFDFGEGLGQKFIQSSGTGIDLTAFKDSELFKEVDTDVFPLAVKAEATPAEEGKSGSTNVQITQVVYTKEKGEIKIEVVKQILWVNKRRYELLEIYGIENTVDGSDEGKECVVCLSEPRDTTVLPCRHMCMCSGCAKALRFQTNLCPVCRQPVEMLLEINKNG
# B3: Protein GLUTAMINE DUMPER 1 (Arabidopsis thaliana (Mouse-ear cress)), O81775 (parent)
# chain: B1 partner
# partner: B1 chain
# Variants of: B1
# Conditions: with gdu1_arath GDU1, O81775
row,effect of a mutation on the interaction,Variant
1,decreasing interaction,MANISSSGGEGRRRRRRNHTAAPPPPPPPPSSSLPPPPLPTEIQANPIVFAAVTPYPNPNPNPVYQYPASYYHHPPPGAMPLPPYDHHLQHHPPHPYHNHSWAPVAMARYPYAGHMMAQPTPYVEHQKAVTIRNDVNLKKESLRLEPDPDNPGRFLVSFTFDATVSGRISVIFFAKESEDCKLTATKEDILPPITLDFEKGLGQKFKQSSGSGIDFSVFEDVELFKAAADTEIYPLAVKAEAAPSGGENEEEERSGSKNAQITQAVYEKDKGEIKIRVVKQILWVNGTRYELQEIYGIGNTVEGDDDSADDANDPGKECVICLSEPRDTTVLPCRHMCMCSGCAKVLRFQTNRAPIARQPVERLLEIKVHGNNGSGNNTGQGETVEQE [G2A;C354A;C357A]

# Variants of: B2
# Conditions: with lul1_arath LUL1, Q9LYW5
row,effect of a mutation on the interaction,Variant
1,disrupting interaction,MRPLSVQSKFEDVATSTSVNHHGVTPQSPWHSPVPYLFGGLAAMLGLIAFALLILACSYWRLSSSGEEDGQNVDEEKESRSGDKAANGAYEEKFLVIMAREDLPRYLATPAMKKCTCGGHEGKMVISQEESVAKEEEKMREGEEEKVKDTGETTTTSH [G100R]

# Variants of: B3
# Conditions: with lofg2_arath LOG2, Q9S752
row,effect of a mutation on the interaction,Variant
1,disrupting interaction,MRPLSVQSKFEDVATSTSVNHHGVTPQSPWHSPVPYLFGGLAAMLGLIAFALLILACSYWRLSSSGEEDGQNVDEEKESRSGDKAANGAYEEKFLVIMAREDLPRYLATPAMKKCTCGGHEGKMVISQEESVAKEEEKMREGEEEKVKDTGETTTTSH [G100R]

# — IntAct's records for PubMed 22291198
